Results as given in the DeepSol protein solubility set.

Assay: soluble on expression in E. coli; label from the status in PepcDB or PDB records

Sequence	soluble on expression in E. coli
MSQLEIRDLWASIDGETILKGVNLVVPKGEVHALMGPNGAGKSTLGKILAGDPEYTVERGEILLDGENILELSPDERARKGLFLAFQYPVEVPGVTIANFLRLALQAKLGREVGVAEFWTKVKKALELLDWDESYLSRYLNEGFSGGEKKRNEILQLLVLEPTYAVLDETDSGLDIDALKVVARGVNAMRGPNFGALVITHYQRILNYIQPDKVHVMMDGRVVATGGPELALELEAKGYEWLKEKVKEGA	soluble
MGSDKIHHHHHHMVERALALSELNQSEPVELVSNSKPSYPDLGEAVSVEVLVGWGKEAIAIIRDNYPDVLCNSDWECDVETTRLVNTQGLDCYYSDTTLSCYMSAEWVRGDDFLSVSDGQTQRDYLDPEKLAYQILQRLVWAKENVPPPNGRVPVLFTSKAADMLWGTAQAALNGKRVLEAASPWAERVGKQVIAPSLTLYQDPQAGPYSCPFDDEGTPTKSLVFIEKGILQNYYCDRTTGRQLGNSTTGNGFRPGLGSYPTPGLFNFLIKPGSKSLKDLIQNMDDGLIVDQMLGGSGGISGDFSINIELGYRVQKGQVIGRVKDTMVAGNVYTALKQVELGSDADWNGSCYTPSLIVEGLSTTGRNN	not soluble
MTDLSRMQGFADSAIPALEGRFFRPPLPEGYVPRSRLCQRLNEGLGGRLLLVCAPAGFGKSSLAVEFCQGLPDQWQNVWLGLSARDSEPGRFLERLLGSLQQFFPQLGAQAMGLLKMRQRHQPFAFEEWLDSLLDELAMHLMLSKPLLLVLDDYHLAQGPVLDRCLQFFLNHLPAGLVVMVTSRQRPDWHLARLRLTRQLLEINEQDLRLTQAESMAVLDRHSRSLDSEALQSLILRSEGWVAGLRFWLLAASEAGDESALSQALRGSEVLIREYLLEEVIDCLPADVQAFLYDTACLERFCAELCNAARDSHDSVEMLRYLQAHQVFLVPLDEQGRWFRYHHLFSDLLRARQTADAQTTRLHLNACRWFSAQGQLDEAVEQALRAGHLDVAANLVQNLSEEQLLAEQNVGMLLRWKMDLPDDLLTSTPRLIVLYAWALGLACQLDAAEELANQLSRFLPAPSATAQKSMLAQWLALSGIIARGRGDSEKTERYCREALLTLPQRRYGQRLVCLSTLANLAVAEGDLWQARVLNRDALELAQRVANPLFEALAHYDRARVLQARGEIIRALEEVRQGQQRLKGLSTVRLYAVRARLTLYEGYLLALRLQVDEGRALLLAGLAEARACRDISVLIGHCVIATMEGFAGRFAEAFAELAEAERLMHIWDVPPIYYLAMITLVKCELWLIQGRIDLAEAWLLRLTQTYNGGLGAAAPECHPQLSQHIELQRAVLERIQGDEVASEQRLQALEQRAQEVGAQLLRLIAMTQQIALLLNQGRQDEARTLLIRSVQASAGGALLPFRVLLAEHSQWLHEQLQLAPSCKLCNALREKFPACFKPAAPEPAHGSDCLSVRELGVLRLIAQGCSNQEISEQLFISLHTVKTHASHINSK	not soluble
ATKQAIEKDPWLSPEQKKAQKEKAKARLDEGLKALKAADSLEILKVTEEAFVDKEKNPDSIPNQHKAGTADQARKQALDSL	not soluble
NYRSRAAYKLIELDNKYLFLKKNKIILDIGCYPGSWCQVILERTKNYKNKIIGIDKKIMDPIPNVYFIQGEIGKDNMNNIKNINYIDNMNNNSVDYKLKEILQDKKIDIILSDAAVPCIGNKIDDHLNSCELTLSITHFMEQYINIGGTYIVKMYLGSQTNNLKTYLKGMFQLVHTTKPKASRNESREIYLVCKNFLGRKK	soluble
MSLDHPPLCVLLVDDDSLVLDSTTLLLEDLGHRVIRAASGAQALQCLEQHRDIQLMISDMAMPHMDGRQLAEAVRRLHPQLPIILASGYAQRQDGPVPELPRIFKPFSQAQLRDALAQVLAQSAEGHHHHHH	soluble
MSLTEYVHGYSEREALRLSEQAETLEKLLHHDTVYPPGAKVLEAGCGIGAQTVILAKNNPDAEITSIDISPESLEKARENTEKNGIKNVKFLQANIFSLPFEDSSFDHIFVCFVLEHLQSPEEALKSLKKVLKPGGTITVIEGDHGSCYFHPEGKKAIEAWNCLIRVQAYMKGNSLVGRQIYPLLQESGFEKIRVEPRMVYIDSSKPELVDGFILKTIIPMVEGVKEQSLKMQIIKEEEWEKGIEELHKTAEHGGTFCYTFFKGWGTKEGHHHHHH	soluble
MNSQNSQKSSSFDDFAGQVVIYTEIGNSKCAKGRDLLHREGIPYTDVSLDSFPQHSQEIFDRTGTDVLPQIFFNNIYIGHETDLERVIGETNKWESLVEHVRREKCTNGGPIVPHPMNAIGFEEYETENNNKCCDEVLWVPDEYSKLVRDMKNAQLIKNNRVKLKVYRNSFKGEELVEWLMRQKGIKRSEALEIGQELIDRHVGQQTSKESGMTFSPDRYYQLVEDDENKPLNAGEDDGDKKQSFPVAECNEKFSKLLKPIFNDILTDDNQSIIYGGLSTNDNFTRYLQFSRELNHVTFEGSTSDDRLTFFINVYNMMLIHITLKHGPPIGIWQRRKLVNGTYYLIGGHRYALHSIINGILRGNKKGPGMLWKAFGKQDARLPISLAVCDPLIYFSLCSGSKTTPPLRVYHSKSIHQEMRENARQTLLRGDKFLRVDMKKNVIHLGKTFKWFSDDFGGSTEKILQWILDVLDTNESDKKHNLQKLFFTGEYSIEYIPYDWSTNGRMDEKEREDIDGGGGGGGDVRRTKTIE	not soluble
GSLDALGSQPIHLWQFLKELLLKPHSYGRFIRWLNKEKGIFKIEDSAQVARLWGIRKNRPAMNYDKLSRSIRQYYKKGIIRKPDISQRLVYQFVHPI	soluble
MRNIGIIINKEKDKENKILNLVILKVKEYLNPDEIKVIDQFYKGDYKDLMSLDLLIVLGGDGTLLGVARKFSTVIDTPILGINIGNLGFLVTAEISELDEALYRIKVGDYKVEERMLLSCTIEGVTCSEERALNDIVVARGTLSRMAQYEVFINDELYATFKGDGVIISTPVGSTAYSFSAGGPLIMPDLQIVSIVPICPHTPNSRPMIIDGNNKVRVKPLINESDVFVTIDGQKALKLEKHNEVLIKKAKEFFRIISFDNKSYFKVLRKKLFKIELEHHHHHH	not soluble
MHHHHHHSSGRENLYFQGNAVLTWNNEILPNWETMWCSRKVRDLWWQGIPPSVRGKVWSLAIGNELNITHELFDICLARAKERWRSLSTGGSEVENEDAGFSAADREASLELIKLDISRTFPNLCIFQQGGPYHDMLHSILGAYTCYRPDVGYVQGMSFIAAVLILNLDTADAFIAFSNLLNKPCQMAFFRVDHGLMLTYFAAFEVFFEENLPKLFAHFKKNNLTPDIYLIDWIFTLYSKSLPLDLACRIWDVFCRDGEEFLFRTALGILKLFEDILTKMDFIHMAQFLTRLPEDLPAEELFASIATIQMQSRNKKWAQVLTALQKDSREMEKG	soluble
MSLKLISNDLRDGDKLPHRHVFNGMGYDGDNISPHLAWDDVPAGTKSFVVTCYDPDAPTGSGWWHWVVVNLPADTRVLPQGFGSGLVAMPDGVLQTRTDFGKTGYDGAAPPKGETHRYIFTVHALDIERIDVDEGASGAMVGFNVHFHSLASASITAMFSEGGSHHHHHH	soluble
MTVNAKTSPSAGNTWRDLPAAQQPEYPDTEALRAVIADLESYPPLVFAGECDQLRARMAAVAKGEAFLLQGGDCAEAFDAVSADHIRNKLKTLLQMGAVLTYAASVPVVKVGRIAGQYSKPRSKPTETRDGVTLPTYRGDSVNGFDFTEAARIPDPERLKRMYHASASTLNLVRAFTTGGYADLRQVHAWNQDFVKSSPSGQRYEQLAREIDNALNFMRACGTDPAEFQTVEFFSSHEALLLDYESALTRVDSRTGQLYDVSGHMVWIGERTRQLDHAHIEFASRIRNPIGIKLGPSTTAEEALQYIERLDPEREPGRLTFIVRMGADKIRDKLPELVEKVTASGATVAWITDPMHGNTYEAASGHKTRRFDDVLDEVKGFFEVHKSLGTHPGGIHVELTGDDVTECVGGGDEIFVDDLHQRYETACDPRLNRSQSLDLAFLVAEMYRDQ	not soluble
MVRTINLYYNNRTVQAIVELKNKPARWHKAKKVQLTPGQTEVKIDLPLPIVASNLMIEFADFYENYQASTETLQCPRCSASVPANPGVCGNCGENVYQCHKCRSINYDEKDPFLCNACGFCKYARFDFMLYAKPCCAVDPIENEEDRKKAVSNINTLLDKADRVYHQLMGHRPQLENLLCKVNEAAPEKPQVVPRCKGHLDKGLGLDQKTAS	not soluble
MSLRAAKRHGISIIVAEKNLILGLDVGNTVIKAVLFDTAGRQIAQHAIDGHSTYPQPGYVERDLEELWRNGCEAIRQLLVKSAVDPNSIAGVGCAGHGNGLYLLDKEQQPLLGIQSLDSRAADMAAELDRKSGDLLQARCLQRPWPAQTPTLLAWVKRHALDLYAQTSTVLFCKDFINFRLTGCLANDISDLSGAGLLALPEVLLDRELLSLYGLEDAFAFFPRCVESADIVGQVTREAAGLTGLSEGTPVIGGFFDVVSSAMGSGVINPGEASVIAGTWSINQVFADKPVVSPDVFMVTTFGRDRYVNIESSATSAANLEWYVHRVRADHGDHAFERCNELVGSVTPRADDPFFHPFIFGSRLGAEFRGGFYGLAGWHGEGHMVRALFEGVCFEHRRHIGVLREAGLPVESAVMSGGGSRSQHWPQIMADVLEIPLRVAEARETGALGAALGAAVATGLYPNYEEAVAAMTRVQNSYQPDTARVSHYRRRYGLYQELTGQLRSFWSALRLPQEGHHHHHH	not soluble
MIKLDMTMLDSFKEDPNLRKLLFSGHFGLEKENIRVTSDGKLALTPHPAIFGPKEDNPYIKTDFSESQIEMITPVTDSIDSVYEWLENLHNIVSLRSENELLWPSSNPPILPAEEDIPIAEYKTPDSPDRKYREHLAKGYGKKIQLLSGIHYNFSFPEALIDGLYANISLPEESKQDFKNRLYLKVAKYFMKNRWLLIYLTGASPVYLADFSKTKHEESLPDGSSALRDGISLRNSNAGYKNKEALFVDYNSFDAYISSISNYIEAGKIESMREFYNPIRLKNAHTDQTVESLAEHGVEYLEIRSIDLNPLEPNGISKDELDFIHLFLIKGLLSEDRELCANNQQLADENENNIALNGLAQPSIKNCDNEDIPLADAGLLELDKMSDFIKSLRPEDTKLRAIIEKQKERLLHPEKTIAAQVKQQVTKEGYVDFHLNQAKTYMEETEALAYKLIGAEDMELSTQIIWKDAIARGIKVDVLDRAENFLRFQKGDHIEYVKQASKTSKDNYVSVLMMENKVVTKLVLAEHDIRVPFGDSFSDQALALEAFSLFEDKQIVVKPKSTNYGWGISIFKNKFTLEDYQEALNIAFSYDSSVIIEEFIPGDEFRFLVINDKVEAVLKRVPANVTGDGIHTVRELVEEKNTDPLRGTDHLKPLEKIRTGPEETLMLSMQNLSWDSIPKAEEIIYLRENSNVSTGGDSIDYTEEMDDYFKEIAIRATQVLDAKICGVDIIVPRETIDRDKHAIIELNFNPAMHMHCFPYQGEQKKIGDKILDFLFD	soluble
SVSPLKTRCCSPSSQQQASEAREIEQPSTVWELDFYSRPVYGKDNKRIWELIVVDESFLLCHVESVPNDMINSAELRKRVERLLEQVTVKPKVVKFSRMPMFNMISLALKDLGFEVKPSRRTYRLYHVLRDREANIYSKMPGYRSENTLSTSYLYSTERLPDALRGEKFAFCTADYSFLYELQSSDTIPYCDIFNTGDSILLEKELPGIIVYSERADSLASWTAGAEVSFIKFREEELELVLECGINSHYRLAKIAEDHRLVEEAKTFEQMKWHMKGFHFYAIQSLKETSGTSHIKGLWLLNDFMEQ	soluble
MSLVIFIMKKRYICILPYSLSYGGVFIDCKEVIANYWNFRSSTYKNGINGFDEEERAVWKQIFENSLASGKRLKVLDVGTGTGFLALLFAEMGHEVSGIDLSEGMLEKARHNADNMGLEISLFHGDAENLPFEDCSFDLVVNKYLLWTLQEPASAVREWKRVLKPGGMIFAIDGNWFDPRPDRYIKRMLYGLAERFAKKNQYNLIFKKSYGPIRNSLPLYEKISPKNISFLFSETGLMNTEISPLLEVQKFQRNRHSFSRRIFENNSIFLISGQKNEGHHHHHH	not soluble
